# Results: patent US20170360893A1 (Merck Sharp & Dohme, published 2017)
# *1 amine or outer side, *2 acyl side, *3 side chain or, on linkers, in order; H or OH if unused. Where no end group is shown, it is not given here. Side-chain parts run from the residue outwards. [ ]: non-standard residue; d: D form. The star is where a group is joined. γGlu = O=C(O)[C@H](CCC(=O)[*:2])N[*:1]; Palmitoyl = CCCCCCCCCCCCCCCC(=O)*; Nle = CCCC[C@H](N)C(=O)O; Aib = CC(C)(N)C(=O)O
# What was measured:
# [1] = target: human glucagon-like peptide 1 receptor (human, UniProt P43220 24-463); assay: cell-based or functional assay
# human glucagon receptor = human glucagon receptor (human, UniProt P47871 26-477); assay: cell-based or functional assay
# human glucagon receptor, sequence (P47871 26-477): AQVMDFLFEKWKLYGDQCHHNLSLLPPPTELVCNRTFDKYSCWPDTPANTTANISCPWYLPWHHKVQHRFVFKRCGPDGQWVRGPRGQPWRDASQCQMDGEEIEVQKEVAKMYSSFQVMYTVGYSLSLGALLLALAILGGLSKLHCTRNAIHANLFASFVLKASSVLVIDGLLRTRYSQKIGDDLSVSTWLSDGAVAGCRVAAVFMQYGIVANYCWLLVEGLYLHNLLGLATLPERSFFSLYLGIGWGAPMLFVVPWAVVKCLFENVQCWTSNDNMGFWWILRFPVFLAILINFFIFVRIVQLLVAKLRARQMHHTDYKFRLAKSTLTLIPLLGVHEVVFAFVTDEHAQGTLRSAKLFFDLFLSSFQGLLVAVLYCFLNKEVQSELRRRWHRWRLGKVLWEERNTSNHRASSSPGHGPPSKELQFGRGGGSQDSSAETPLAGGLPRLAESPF
Binder,"GLPR1 EC50 (nM) human; cAMP production (HitHunter cAMP XS) in cells expressing human GLP-1R, 20% human serum [1] [nM]","GCGR EC50 (nM) human; cAMP production (HitHunter cAMP XS) in cells expressing human GCGR, 20% human serum (human glucagon receptor) [nM]"
H[Aib]VGTFTSDK([γGlu-γGlu-Palmitoyl])SKYLD[Aib]RAAQDFVQWL[Nle]DT-NH2 [Co-agonist Peptide 4],0.1,0.89
H[dS]QGTFTSDK([γGlu-γGlu-Palmitoyl])SKYLDVRAAQDFVQWLLDT-NH2 (N-terminus assumed; SMILES CCCCCCCCCCCCCCCC(=O)N[C@@H](CCC(=O)N[C@@H](CCC(=O)NCCCC[C@H](NC(=O)[C@H](CC(=O)O)NC(=O)[C@H](CO)NC(=O)[C@@H](NC(=O)[C@H](Cc1ccccc1)NC(=O)[C@@H](NC(=O)CNC(=O)[C@H](CCC(N)=O)NC(=O)[C@@H](CO)NC(=O)[C@@H](N)Cc1c[nH]cn1)[C@@H](C)O)[C@@H](C)O)C(=O)N[C@@H](CO)C(=O)N[C@@H](CCCCN)C(=O)N[C@@H](Cc1ccc(O)cc1)C(=O)N[C@@H](CC(C)C)C(=O)N[C@@H](CC(=O)O)C(=O)N[C@H](C(=O)N[C@@H](CCCNC(=N)N)C(=O)N[C@@H](C)C(=O)N[C@@H](C)C(=O)N[C@@H](CCC(N)=O)C(=O)N[C@@H](CC(=O)O)C(=O)N[C@@H](Cc1ccccc1)C(=O)N[C@H](C(=O)N[C@@H](CCC(N)=O)C(=O)N[C@@H](Cc1c[nH]c2ccccc12)C(=O)N[C@@H](CC(C)C)C(=O)N[C@@H](CC(C)C)C(=O)N[C@@H](CC(=O)O)C(=O)N[C@H](C(N)=O)[C@@H](C)O)C(C)C)C(C)C)C(=O)O)C(=O)O) [Co-agonist Peptide 3],0.13,0.08
